Consider 2 molecules from patent publication US20110223176A1 (AbbVie / Abbott, published 2011).

For assay [1], the target named is T1, human BSG2 (basigin isoform 2) on the cell surface (human, UniProt P35613 140-385).
T1 construct: Presented on stably transfected BAF3 cells or endogenously on human tumor cell lines (HepG2, MiaPaCa-2, DoHH-2); also called hBSG2; CD147
T1 sequence: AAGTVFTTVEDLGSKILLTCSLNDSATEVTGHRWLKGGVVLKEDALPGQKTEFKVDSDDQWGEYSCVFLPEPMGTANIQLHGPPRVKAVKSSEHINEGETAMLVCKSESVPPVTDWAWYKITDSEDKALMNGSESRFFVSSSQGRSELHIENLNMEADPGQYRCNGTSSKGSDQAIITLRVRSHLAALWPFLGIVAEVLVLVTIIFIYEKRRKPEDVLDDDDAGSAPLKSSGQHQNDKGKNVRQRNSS
The assay can be described thus: flow cytometry (FACS) on BAF3 cells expressing human BSG2. On the procedure: (§1) Stable cell lines overexpressing cell-surface BSG2 or human tumor cell lines were harvested from tissue culture flasks, washed three times and resuspended in phosphate buffered saline (PBS) containing 1% bovine serum albumin and 1 mM CaCl₂ (FACS buffer). 5×10⁵ cells were incubated with antibodies at various concentrations in FACS buffer for 60 minutes on ice. Cells were washed twice and the bound murine monoclonal antibody was detected with a goat Fab′2 anti-mouse IgM+IgG+IgA (H+L) R-phycoerythrin-conjugated antibody (Southern Biotechnology Associates, Inc., Birmingham, Ala., Catalog No. 1012-08) diluted 1:500. Following incubation on ice (4° C., 60 minutes), cells were washed three times and resuspended in FACS buffer. Fluorescence was measured using a Becton Dickinson FACSCalibur-HTS (Becton Dickinson, San Jose, Calif., US). Data were analyzed using Graphpad Prism software and EC₅₀ values were reported as the concentration of antibody to achieve 50% of maximal BSG2 antibodies binding to BSG2 expressing cells.

Assay [2] addresses T2, cynomolgus monkey BSG2 on the cell surface (cynomolgus monkey).
T2 construct: whole, on cells; also called BAF3-cyno BSG2; Cyno BSG2
The assay can be described thus: flow cytometry (FACS) on BAF3 cells expressing cynomolgus BSG2. As to the method:
as §1

Assay [3] concerns the target T1, human BSG2 (basigin isoform 2) on the …. In words: cell-based ECL (MSD) binding on whole cells expressing human BSG2.
The target of assay [4] is T3, purified recombinant human BSG2 extracellular domain (human, UniProt P35613 22-325).
T3 construct: also called Human BSG2 ECD
T3 sequence: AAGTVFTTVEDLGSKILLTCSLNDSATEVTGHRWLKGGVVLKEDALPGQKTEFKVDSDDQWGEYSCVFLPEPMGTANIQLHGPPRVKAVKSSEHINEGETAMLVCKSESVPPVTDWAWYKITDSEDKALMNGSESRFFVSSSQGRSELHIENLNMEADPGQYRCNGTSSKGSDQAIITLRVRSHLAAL
In words: SPR (Biacore), mAb captured by anti-mouse Fc, BSG2 ECD injected, 25 C. On the procedure: (§2) Binding of BSG2 antibodies to a purified recombinant BSG2 extracellular domain (ECD) was determined by surface plasmon resonance-based measurements with a Biacore® instrument (either a Biacore 2000, Biacore 3000, or Biacore T100; GE Healthcare, Piscataway, N.J., US). The assay format for mAb affinity analysis was Fc-based capture via immobilized anti-Fc IgG. A standard amine coupling protocol was employed to immobilize Fc-specific IgG via primary amines to the carboxy-methyl (CM) dextran surface of CMS sensorchips. For the study of mouse anti-human BSG2 mAbs, anti-mouse Fc was used as the immobilized capture reagent. An automated protocol, available on the Biacore 2000, was used to immobilize 8000-10000RU of capture reagent in all 4 flowcells of the sensorchip. Binding was recorded as a function of time and kinetic rate constants were calculated. In this assay, on-rates as fast as 10⁷M⁻¹ s⁻¹ and off-rates as slow as 10⁻⁵ s⁻¹ can be measured.
(§3) Briefly, the CM-dextran surfaces were activated by freshly prepared 1:1 […] 3-(N,N-dimethylamino)propyl-N-ethylcarbodiimide (EDC). Then the anti-Fc IgG capture reagent (20 μg/ml in 10 mM sodium acetate, pH 4.5) was applied to the surface followed by deactivation of the surface and blocking of the residual reactive sites with 1M ethanolamine (pH 8.5). The running buffer employed was PBS-PB [1×PBS (Sigma P3813), pH 7.4, 0.005% P20 surfactant, 0.1 mg/ml BSA (Sigma-A7906)] and the assay temperature was 25° C. All reagents were diluted into running buffer to the specified concentrations. Each experimental cycle consisted of the following steps: (1) anti-BSG2 mAbs at 0.5 to 1 μg/ml were captured in flowcells 2, 3 or 4 to a level of 100-120RU. All measurements were referenced against flowcell 1 which had no captured anti-BSG2 mAb; (2) human BSG2 ECD was injected through all 4 flowcells, 240 μl at 80 μl/min. After the antigen injection, dissociation was monitored for 600 seconds at 80 μl/min; and (3) the anti-Fc capture surface was regenerated with 10 mM glycine, pH 1.5.
(§4) The BSG2 antibody binding affinities were determined by the BIACORE technology as described in Example 1.2. Table 10 represents the antibody binding kinetics against human and cynomolgus monkey BSG2 extracellular domain (ECD).

Assay [5] concerns the target T4, cynomolgus monkey BSG2 extracellular domain (cynomolgus monkey).
T4 construct: extracellular domain; also called Cynomolgus BSG2 ECD
The description is as above. On the procedure: as §2, §3, §4

The target in assay [6] is T2, cynomolgus monkey BSG2 on the cell …. The assay can be described thus: cell-based ECL (MSD) binding on whole cells expressing cynomolgus BSG2. As to the method:
Cells were plated at 25,000 cells/well in 25 μl PBS using 96 well MSD high binding plates (MSD, catalogue no. L11XB-3), and incubated at 37° C. for 1 hour. 25 μl/well of blocking solution (30% serum in PBS) was added to the plates for 30 minutes at room temperature with mild agitation. Plates were then incubated with 25 μl/well of BSG2 antibodies (10 μg/ml) diluted in assay buffer (10% serum in PBS) for 1 hour at room temperature with mild agitation, and then washed 3× with PBS. Goat anti-mouse or anti-human IgG sulfotag was added at 1 μg/ml for 1 hour with mild agitation, and plates were washed 3× with PBS. After the final wash, plates were incubated with 2×MSD surfactant-free read buffer (catalogue no. R92TD-2) and the signal was detected on a MSD SECTOR Imager 6000. Data were analyzed using Graphpad Prism software and EC₅₀ values were reported.
(§5) BSG2 antibody binding activities against whole cells expressing human or cynomolgus monkey BSG2 were assessed by ECL using MSD technology (described in Example 1.3) and the receptor binding assay (described in Example 1.4) and are shown in Table 11.

The target in assay [7] is T1, human BSG2 (basigin isoform 2) on the …. In words: receptor binding assay, Eu-labeled antibody on cells expressing human BSG2. As to the method: Cell lines expressing BSG2 were harvested and washed once in assay buffer (PBS, 0.1% BSA, 0.02% Na Azide, 10 mM EDTA) and resuspended to 5×10⁶ cells per mL. Serial 1:2 dilutions of ⁺³Eu-labeled anti-BSG2 antibody stock in assay buffer were made for final concentrations ranging from 1.6×10⁻⁸-7.7×10⁻¹² M, and a 4 mg/mL solution of unlabeled anti-BSG2 antibody was also prepared. To 96 well round bottom plates, 25 μl of ⁺³Eu-labeled antibody dilutions were added to 25 μl buffer (total counts), or 25 μl of unlabeled antibody were added to 25 μl buffer (background counts). 50 μl of cells at 2.5×10⁵ cells per well were then added to all samples, mixed gently, and incubated on ice for 1 hour. Cell bound antibody was then separated from unbound antibody by transferring 20 μL of the reaction mixture to Acrowell 96 well filter plates (Pall PN 5020), centrifuged for 5 min (2200 rpm), washed 3× with 150 μL cold assay buffer, and centrifuged for 5 min. Signal was determined by incubating samples with 150 μL/well of enhancement buffer and read using Envision. The specific counts were determined by subtracting the background counts (cells+labeled antibody+excess cold antibody) from the corresponding total counts (cells+labeled antibody) for each antibody concentration. The labeled antibody concentration versus total counts was analyzed using Graphpad Prism 4 to calculate Kd and Bmax values.
as §5

Assay [8] shares this target. In words: flow cytometry (FACS) on HepG2 hepatocellular carcinoma cells (cell-surface BSG2). As to the method:
as §1

Assay [9] shares this target. The assay can be described thus: cell-based or functional assay.

B1: mouse anti-human BSG2 monoclonal antibody EB41-1F4-2C1 (antibody, mouse IgG1, V domains shown)
VH: EVKLEESGGGLVQPGGSMKLSCVASGFTFSNFWMDWVRQSPEKGLEWVAEIRLKSTNYATHYAESVKGRFTISRDDSKSSVYLQMNNLRAEDTGIYYCTATSTGYWGQGTTLTVSS
VL: SIVMTQSPKILLVSAGDRVTITCKASQSVSNDVAWYQQKPGQSPKLLIYYASNRYTGVPDRFTGSGYGTDFTFTISTVQAEDLAVYFCQQDYSSPYTFGGGTKLEIK
notes: Hybridoma antibody, mouse IgG1/kappa
Take B1: the EC50 in [1] was 0.2 nM; in assay [2] it was 0.71 nM; in assay [3], 0.4 nM; in assay [6] it was 16 nM; in assay [8], 0.17 nM. The figures for the Kd in [4], in [5] and in assay [7] were 2.5 nM, 1600 nM and 0.4 nM, respectively. Also, the koff in [4] came to 0.001 s⁻¹; in [5], 0.6 s⁻¹. Further, the kon was 400000 M⁻¹ s⁻¹ in assay [4] and 377000 M⁻¹ s⁻¹ in assay [5].

B2: mouse anti-human BSG2 monoclonal antibody SZ66-2D2-2A1 (antibody, mouse IgG2a, kappa, V domains shown)
VH: QVQLQQPGAEIVRPGASVKLSCKASGYTFTDYWMNWVKLRPGQGLEWIGIIDPSDSYASYNQKFKGKATLTVDESSSTAYMQLSSLTSEDSAVYYCARKSYYGGNYYYAMDYWGQGTSVTVSS
VL: EIVLTQSPALMAASPGEKVTITCSVSSSINSINLHWYRQKSETSPKPWIYGTSNLASGVPVRFSGSGSGTSYSLTISSMEAEDAATYYCQQWSSYPLTFGAGTKLELKR
notes: Hybridoma antibody, mouse IgG2a/kappa
In the case of B2, in [9], the “CDC assay (% killing at 10 µg/ml Ab), MiaPaCa-2 pancreatic cancer cells” value turned out to be 84 % killing. For the same molecule, the EC50 in [1] was found to be 0.14 nM; in [3] it was 0.3 nM; in assay [8], 0.17 nM. Further, the values for the Kd in assay [4] and in assay [7] were 47 nM and 0.15 nM, respectively. Further, the koff in [4] came to 0.019 s⁻¹. The kon in [4] was found to be 410000 M⁻¹ s⁻¹.
